Assay results published in the DeepSol protein solubility set.

Test: soluble on expression in E. coli; label from the status in PepcDB or PDB records

Sequence	soluble on expression in E. coli
MKILLIGGSGNIGRAIAAELSGRHEIIAAGRHHGDVRVDIEDEQSIAAMYRQLPRLDAVAVATGGRNGHVGPLAEMNAERYRVGLDAKLMGQVNLVLRGLDKVADGGSFTLVGGAWQPQAIVPLLSNVYMANAALEGFVNAAAVELPRRLRINLVSPLLLAESEAEYGPLFRGVPLVEARQVARAYSLSIEGLEHHHHHH	not soluble
EYLDGFEAFTDQYKIKFQEFLDRFGIYYQPSTNKNAELFKVADSDIPSAEVKAYYVKEEWYFTPTNSDVDIKIQAICPIMTGQDEFGEVRNQPLFWIPYENIRPYIARERVMLSSLNNTRNSTIDDFFRLNLYKGDIVKTENLHNRALAEYCPTPDSMKMESKRIDKELQGFRDGLFVTQDTTWMKQAETKKSKGKKLEKARGKNITSRTRGQGEGAAETEAVEPKKQKASKNKAATRSVRRRK	not soluble
MGHHHHHHSHMTDCEFGYIYRLAQDYLQCVLQIPQPGSGPSKTSRVLQNVAFSVQKEVEKNLKSCLDNVNVVSVDTARTLFNQVMEKEFEDGIINWGRIVTIFAFEGILIKKLLRQQIAPDVDTYKEISYFVAEFIMNNTGEWIRQNGGWENGFVKKFEPKSGWMTFLEVTGKICEMLSLLKQYC	not soluble
MAHHHHHHMAQASGCELMDFVSVLPVPPQTERRRGVLRFVGSTDFAPGLWMGIELFGTIGRNDGSVMGKSYFSCPAGQGVFVRPELVVPYMSEGEGPSGTVRKGDEFLAVVEPLRADLTRMQEELQQREAALRDAREELRNVMALHDAKSVELEREREEKSRMIMLTMTACRNNVTATTQTDEDKAVEVKDLEIHRLQQQCADLRDLCELQEDEIHRQREHADDLAQIVENLRREHEEERVRMVEKIRSLEEEITQRQKATAEDSAKADVEDMHLHAFQQQQEKEALRILKERYEQLYAERESERHEQEAKWKRATAEYEEALTQQREYKNRLLNEIRQLQHEIKDMRHSRERERVLQVPLSTLERDEYESQIYGLQWELMGVHEEMFSKRYDHFLAPVSSWNLPADVMRALSEEIMSLERVLPFTTPEKCQQSRMVLFQMHPRDAEGGTIAAAPL	not soluble
MKALIFAAGFGERMRPLTEHTPKPLLSVGGAPLIVWHLRKLAALGVDEAVINTSWLAEQFPQLLGDGSAYGLRLTYSYEGTTPLETGGGMLHALPLLGDAPFLLINGDIWTDFDFSRLSHAPKGLAELVLVDRPSYAARADFALDADGKVRVDLPATLTYSGIGMYRPALLRDWQSVNGPLPEQVGTAPRFALAPILRAKMAQGLIDGIHHPGRWTDVGTPQRLAALDAQLLGDGGLEHHHHHH	not soluble
MISAHCNLRLLCSSDSSASASQVAGTTEVVENLVTNDNSPNIPEAIDRLFSDIANINRESMAEIADIQIEEMAVNLWNWALTIGGGWLVNEEQKIRLHYVACKLLSMCEASFASEQSIQRLIMMNMRIGKEWLDAGNFLIADECFQAAVASLEQLYVKLIQRSSPEADLTMEKITVESDHFRVLSYQAESAVAQGDFQRASMCVLQCKDMLMRLPQMTSSLHHLCYNFGVETQKNNKYEESSFWLSQSYDIGKMDKKSTGPEMLAKVLRLLATNYLDWDDTKYYDKALNAVNLANKEHLSSPGLFLKMKILLKGETSNEELLEAVMEILHLDMPLDFCLNIAKLLMDHERESVGFHFLTIIHERFKSSENIGKVLILHTDMLLQRKEELLAKEKIEEIFLAHQTGRQLTAESMNWLHNILWRQAASSFEVQNYTDALQWYYYSLRFYSTDEMDLDFTKLQRNMACCYLNLQQLDKAKEAVAEAERHDPRNVFTQFYIFKIAVIEGNSERALQAIITLENILTDEESEDNDLVAERGSPTMLLSLAAQFALENGQQIVAEKALEYLAQHSEDQEQVLTAVKCLLRFLLPKIAEMPESEDKKKEMDRLLTCLNRAFVKLSQPFGEEALSLESRANEAQWFRKTAWNLAVQCDKDPVMMREFFILSYKMSQFCPSDQVILIARKTCLLMAVAVDLEQGRKASTAFEQTMFLSRALEEIQTCNDIHNFLKQTGTFSNDSCEKLLLLYEFEVRAKLNDPLLESFLESVWELPHLETKTFETIAIIAMEKPAHYPLIALKALKKALLLYKKEEPIDISQYSKCMHNLVNLSVPDGASNVELCPLEEVWGYFEDALSHISRTKDYPEMEILWLMVKSWNTGVLMFSRSKYASAEKWCGLALRFLNHLTSFKESYETQMNMLYSQLVEALSNNKGPVFHEHGYWSKSD	not soluble
MSLALQEQCLWETLTPQRPDRAPLKGELTADVCIIGAGFTGLSAAVHLLEQGKRVCVVEAHRAGHGGSGRNVGLVNAGMWIPPDEIEAGFGEQVGSQLNRMLGAAPSLVFSLVDKYHIDCQLRREGTLHMAHNARGEADLRSREEQWKRRGAPVELLTGAACEAATGTRKIAAALLDRRAGTLNPMAYVSGLARAATELGGRLFDHSPVTRLERQGQRWSVQTEQGSVLAEQVVIASNAYTEGDWTELRRNFFPGYYYQVASAPLTEEAARQILPGGQGSWDTRQVLSSIRRDAEGRLLLGSLGNGSQKPLWFLKAWADRVQQHYFPYLKPVEWECTWTGCIAFTPDHLMRLFEPAPGLVAVTGYNGRGVTTGTVVGKAFADYLCNGDPQALPIPFAAMQPLAGVGLRSCLYEAGFSLYHAGQCLRIVEGHHHHHH	not soluble
GSHMNNEDFSQWSVDDVITWCISTLEVEETDPLCQRLRENDIVGDLLPELCLQDCQDLCDGDLNKAIKFKILINKMRDSKLEWKD	soluble
MTEYKLVVVGDGGVGKSALTIQLIQNHFVEEYDPTIEDSYRKQVVIDGETCLLDILDTAGQEEYSAMRDQYMRTGEGFLLVFAVNEAKSFENVANYREQIRRVKDSDDVPMVLVGNKCDLSSRSVDFRTVSETAKGYGIPNVDTSAKTRMGVDEAFYTLVREIRKHRERHDNNKPQKKKKCQIM	not soluble
MGSDKIHHHHHHCSCNDLLDEKAYDFVSPEQLGDSESAASQLVTGAYNTVITSFIAPGSYLYLTNMDCDYASGASWAFGNVGAGNPQGFWGIDHMWQGSYTLIHRANLGISKISAMSNLSQESKQDALAQLCFLKAWAYFNLVRNYGPVPIFRKSISEGEAMSQPRASVSDVYAHIIELLEQAEGMYSKDDAGFVVGHASNGAAKALLAKVYVTMASGAMSGVPIVVKGGNPNIFEPQPITHIAKTVAGYESFDPAKYYALARDKAWEVINEYTLFDNYMDVWAIGNRNKGEHIWMAQAISGDKDFGNTICQDYVGIFKEDGTMEGNWYGMRDHWYLLFEEQDKRIVDGVIHRYASDGISNGKVIYNYYPRWYADKVENKEVYDSQGNAFDGTEVYHEGQGWTLAKLTKFTFVTDRKQKNSDFHFPLLRLPDIMLIYAEAVNELNGGPDAEAYNQVNRIRTRAHATPFSGMNQDEFRSAVLEERARELAYEADRRYDLFRWGIYLDVMNAIDMDEHNVTKRRLERNLLYPIPTSEVNSNDKIDSNNPGW	not soluble
MAHHHHHHMEEGGRYAACKAELYKLQEKIKTQETPRDNCAEKEKMWEKQRSELEQEKDECLRTSDAHRTQKQDLEDRVRYMDGLTRAMISEKRFAEERRNISEKENEDLKTRVRVLTHKLGVLTAMVQKLHISHMIKDMGIAMLQAEAKQAAEEMETNHKKDVAAAEERVLQECKEKFCFDSSGNLNAAVFIEHNISKENRSFLLEQLNCSKENQGDTKREWRFWRKGANDSSRPKKSADHSESNGSSHGNNIHLVLRVCLSLLLLTALS	not soluble
MLRVYHSNRLDVLEALMEFIVERERLDDPFEPEMILVQSTGMAQWLQMTLSQKFGIAANIDFPLPASFIWDMFVRVLPEIPKESAFNKQSMSWKLMTLLPQLLEREDFTLLRHYLTDDSDKRKLFQLSSKAADLFDQYLVYRPDWLAQWETGHLVEGLGEAQAWQAPLWKALVEYTHQLGQPRWHRANLYQRFIETLESATTCPPGLPSRVFICGISALPPVYLQALQALGKHIEIHLLFTNPCRYYWGDIKDPAYLAKLLTRQRRHSFEDRELPLFRDSENAGQLFNSDGEQDVGNPLLASWGKLGRDYIYLLSDLESSQELDAFVDVTPDNLLHNIQSDILELENRAVAGVNIEEFSRSDNKRPLDPLDSSITFHVCHSPQREVEVLHDRLLAMLEEDPTLTPRDIIVMVADIDSYSPFIQAVFGSAPADRYLPYAISDRRARQSHPVLEAFISLLSLPDSRFVSEDVLALLDVPVLAARFDITEEGLRYLRQWVNESGIRWGIDDDNVRELELPATGQHTWRFGLTRMLLGYAMESAQGEWQSVLPYDESSGLIAELVGHLASLLMQLNIWRRGLAQERPLEEWLPVCRDMLNAFFLPDAETEAAMTLIEQQWQAIIAEGLGAQYGDAVPLSLLRDELAQRLDQERISQRFLAGPVNICTLMPMRSIPFKVVCLLGMNDGVYPRQLAPLGFDLMSQKPKRGDRSRRDDDRYLFLEALISAQQKLYISYIGRSIQDNSERFPSVLVQELIDYIGQSHYLPGDEALNCDESEARVKAHLTCLHTRMPFDPQNYQPGERQSYAREWLPAASQAGKAHSEFVQPLPFTLPETVPLETLQRFWAHPVRAFFQMRLQVNFRTEDSEIPDTEPFILEGLSRYQINQQLLNALVEQDDAERLFRRFRAAGDLPYGAFGEIFWETQCQEMQQLADRVIACRQPGQSMEIDLACNGVQITGWLPQVQPDGLLRWRPSLLSVAQGMQLWLEHLVYCASGGNGESRLFLRKDGEWRFPPLAAEQALHYLSQLIEGYREGMSAPLLVLPESGGAWLKTCYDAQNDAMLDDDSTLQKARTKFLQAYEGNMMVRGEGDDIWYQRLWRQLTPETMEAIVEQSQRFLLPLFRFNQS	soluble
MKELVEIAVPENLVGAILGKGGKTLVEYQELTGARIQISKKGEFLPGTRNRRVTITGSPAATQAAQYLISQRVTYEQGVRASNPQKV	soluble
MGSDKIHHHHHHMMILIQSRGKMKCKELSEELEVSERQIKSYKMYLEQAGIFINSTPGIYGGYEIDKCNSISLIKLLDSEVSILDMINSQLEYNNDIYKNEFNNIVEKIKAVLNTGEKSDTYMDYFTVQAQRNCDYESEKNKCNEIIRAYTTKHKFWIEYYSLNSGNSERIVHPYGLFNYKSDTYMVAFCEKRFKFIDFKLCRIKDYKVLEEKYNVDKSFSWDEYSKNSIGIYKGEEINVVIKISHPFSTIIKEKVWVNNQQIIEYDDKSIMFKAKMRGYEEIKSWILSMGAYVEVVEPDRLRNDILSEIEKMKKIY	not soluble
MSETVKLDVGGTIFKTSRSTLTKFNGFFKTMLESDIGLKIDESGSIFIDRSPKNFDLILNFMRDGDVVLPNCELKLKELLVEAQFYLLDGLIELCNSKIELVEAPKIKLRFIESDEQFLQILAVQQKPMLIIEFCMVGNDMSIPYNFNLYEFMEKYSHQFDIYFRKFFVHYPHKIVNSERLSEDEPSRKWKARIKWKPTENGYYSQFPHNLRINRGGRIIRDATFLERLEKMIGEFDEYLKKQRNR	not soluble
MGSDKIHHHHHHMQGSAMLVHPQYDSNCPKTSVEVSEGFGGWFARICEDDQETFHQFRRERDAIAFADTQRMRLGLPCPPLERTASSGHKAIRKINQIADVLRTRGLGRFLQLSTLSLSEPIRSQRLRYRVASDARQALSKIKAASRHRGLFIDCGSNIGQAYKFFSRYYTPDYYDYVLVEPNKNCLEHLHSLRSENVAIEVVAKAASVKDGYAEFLGPPGRSDLTYEGCSIVPSHNGGLYPSQRFTPELVETFSLSQMIQAKRGLYEVIVLKLDVEGAEYEILDDLIRSGLHRDLHATYVEFHSLYMRNSEGRKTAVVERKIVDEFQQAGTHISRWI	not soluble
GMNKKTQLLEVIAALPEELVDQALNYVQMLQNPIQITPGVCGGQARIRNTRIPVWTLVAYRQQGAPDKELLANYPGLTAEDLSAAWHYYEQNPEQIDREIAQDDLV	soluble
MIVDLPDTTTTAVNKKLDELREKIGAVAMGRVLTLIIAPDSEAMLEESIEAANDASHEHPSRIIVTMRGDPYADRPRLDAQLRVGADAGAGEFVVLRLSGPLAGHADSVVIPFLLPDIPVVAWWPDIAPAVPAQDALGKLAIRRITDATNAIDPLSAIKSRLAGYGAGDTDLAWSRITYWRALLTSAVDQPRHEPIESALVSGLKTEPALDVLAGWLASRIEGPVRRAVGELKVELVRNSETIVLSRPQEGITATLTRTGKPDALVPLARRVTGECLAEDLRRLDPDEIYCAALEGIKKVQYR	not soluble
